Reference: article PMC6006248, “CARK1 mediates ABA signaling by phosphorylation of ABA receptors” (Cell Discovery, 2018)

Legend:
ABI1 (Clade A PP2C) = target: T1, ABI1 (Clade A PP2C) (Arabidopsis, UniProt P49597 1-434); assay: SPR; in vitro; who was immobilised and the conditions are not told in the main text (Supplementary Fig. S7A-E); conditions: both partners purified
T1 construct: Protein phosphatase 2C ABI1, Arabidopsis; source: purified with the similar procedures as described for CARK1-KD
T1 sequence (looked up): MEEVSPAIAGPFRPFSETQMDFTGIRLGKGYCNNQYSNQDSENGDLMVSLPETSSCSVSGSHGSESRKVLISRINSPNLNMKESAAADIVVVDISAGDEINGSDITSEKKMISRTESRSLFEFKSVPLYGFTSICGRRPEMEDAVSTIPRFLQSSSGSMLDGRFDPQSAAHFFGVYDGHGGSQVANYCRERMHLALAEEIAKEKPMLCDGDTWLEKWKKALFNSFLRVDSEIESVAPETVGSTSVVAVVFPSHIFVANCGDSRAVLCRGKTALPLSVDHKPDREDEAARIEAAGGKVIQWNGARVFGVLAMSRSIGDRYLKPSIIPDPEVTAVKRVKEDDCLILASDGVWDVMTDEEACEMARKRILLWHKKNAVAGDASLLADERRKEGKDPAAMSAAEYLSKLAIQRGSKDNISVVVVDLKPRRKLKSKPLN

[1] = target: T2, His-tagged CARK1-KD (kinase domain of CARK1, residues 50-353) (Arabidopsis, UniProt Q9LUT0 50-353); assay: pull-down; GST pull-down; His-tagged CARK1-KD or CARK1-KD^N204A (50, 100 and 200 μg) incubated with 100 μg of GST-tagged RCAR3 or RCAR11; SDS-PAGE and immunoblot; conditions: both partners purified
T2 construct: CARK1 (At3g17410), Arabidopsis, kinase domain, residues 50-353; Cloned into pET28a for the pull-down; details of the purification are in the Supplementary Information; source: E. coli Rosetta (DE3), purified
T2 sequence (looked up): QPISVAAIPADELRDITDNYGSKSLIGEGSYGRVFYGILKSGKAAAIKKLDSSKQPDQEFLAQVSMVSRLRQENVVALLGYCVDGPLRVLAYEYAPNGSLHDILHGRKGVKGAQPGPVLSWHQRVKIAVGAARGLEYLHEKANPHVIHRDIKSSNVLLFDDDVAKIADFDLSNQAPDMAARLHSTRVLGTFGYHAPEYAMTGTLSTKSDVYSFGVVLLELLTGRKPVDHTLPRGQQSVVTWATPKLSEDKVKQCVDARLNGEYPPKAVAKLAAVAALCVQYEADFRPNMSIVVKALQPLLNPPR

Binder	Kd (ABI1 (Clade A PP2C))	binding result [1]
RCAR3^T77D (phosphor-mimic form of RCAR3) (receptor, Arabidopsis, UniProt Q9FGM1 1-188, looked up, ABA receptor RCAR3 (PYL8), Arabidopsis, with T77D; source: purified with the similar procedures as described for CARK1-KD) MEANGIENLTNPNQEREFIRRHHKHELVDNQCSSTLVKHINAPVHIVWSLVRRFDQPQKYKPFISRCVVKGNMEIGDVREVDVKSGLPATRSTERLELLDDNEHILSIRIVGGDHRLKNYSSIISLHPETIEGRIGTLVIESFVVDVPEGNTKDETCYFVEALIKCNLKSLADISERLAVQDTTESRV	~0.2 µM	–
RCAR3^S85R (interface point mutant) (receptor, Arabidopsis, UniProt Q9FGM1 1-188, looked up, ABA receptor RCAR3 (PYL8), Arabidopsis, with S85R; source: purified with the similar procedures as described for CARK1-KD) MEANGIENLTNPNQEREFIRRHHKHELVDNQCSSTLVKHINAPVHIVWSLVRRFDQPQKYKPFISRCVVKGNMEIGTVREVDVKRGLPATRSTERLELLDDNEHILSIRIVGGDHRLKNYSSIISLHPETIEGRIGTLVIESFVVDVPEGNTKDETCYFVEALIKCNLKSLADISERLAVQDTTESRV	11.3 µM	–
GST-tagged RCAR11 (receptor, Arabidopsis, UniProt O49686 1-191, looked up, ABA receptor RCAR11 (PYR1), Arabidopsis, cDNA cloned into pGEX-6P-1; Details are in the Supplementary Information; also called PYR1; source: E. coli, purified (similar procedures as for CARK1-KD)) MPSELTPEERSELKNSIAEFHTYQLDPGSCSSLHAQRIHAPPELVWSIVRRFDKPQTYKHFIKSCSVEQNFEMRVGCTRDVIVISGLPANTSTERLDILDDERRVTGFSIIGGEHRLTNYKSVTTVHRFEKENRIWTVVLESYVVDMPEGNSEDDTRMFADTVVKLNLQKLATVAEAMARNSGDGSGSQVT	–	binds
RCAR3^T77A (receptor, Arabidopsis, UniProt Q9FGM1 1-188, looked up, ABA receptor RCAR3 (PYL8), Arabidopsis, with T77A; source: purified with the similar procedures as described for CARK1-KD) MEANGIENLTNPNQEREFIRRHHKHELVDNQCSSTLVKHINAPVHIVWSLVRRFDQPQKYKPFISRCVVKGNMEIGAVREVDVKSGLPATRSTERLELLDDNEHILSIRIVGGDHRLKNYSSIISLHPETIEGRIGTLVIESFVVDVPEGNTKDETCYFVEALIKCNLKSLADISERLAVQDTTESRV	~6.4 µM	–
GST-tagged RCAR3 (receptor, Arabidopsis, UniProt Q9FGM1 1-188, looked up, ABA receptor RCAR3 (PYL8), Arabidopsis, cDNA cloned into pGEX-6P-1; Details are in the Supplementary Information; also called PYL8; source: E. coli, purified (similar procedures as for CARK1-KD)) MEANGIENLTNPNQEREFIRRHHKHELVDNQCSSTLVKHINAPVHIVWSLVRRFDQPQKYKPFISRCVVKGNMEIGTVREVDVKSGLPATRSTERLELLDDNEHILSIRIVGGDHRLKNYSSIISLHPETIEGRIGTLVIESFVVDVPEGNTKDETCYFVEALIKCNLKSLADISERLAVQDTTESRV	–	binds
